Laboratory results from US20190233493A1 (Sanofi, published 2019).
*1 amine or outer side, *2 acyl side, *3 side chain or, on linkers, in order; H or OH if unused. Primed or numbered codes have the meaning given here. Side-chain parts run from the residue outwards. [ ]: non-standard residue; d: D form. The star is where a group is joined. PEG28′ = polyethylene glycol spacer with 28 ethoxy units (aminoethoxy-ethoxy chain); γGlu = O=C(O)[C@H](CCC(=O)[*:2])N[*:1]; Stearoyl = CCCCCCCCCCCCCCCCCC(=O)*; Nle = CCCC[C@H](N)C(=O)O; Aib = CC(C)(N)C(=O)O

T1: RXFP1 receptor (UniProt Q9HBX9 1-757, limits assumed)
T1 sequence (looked up): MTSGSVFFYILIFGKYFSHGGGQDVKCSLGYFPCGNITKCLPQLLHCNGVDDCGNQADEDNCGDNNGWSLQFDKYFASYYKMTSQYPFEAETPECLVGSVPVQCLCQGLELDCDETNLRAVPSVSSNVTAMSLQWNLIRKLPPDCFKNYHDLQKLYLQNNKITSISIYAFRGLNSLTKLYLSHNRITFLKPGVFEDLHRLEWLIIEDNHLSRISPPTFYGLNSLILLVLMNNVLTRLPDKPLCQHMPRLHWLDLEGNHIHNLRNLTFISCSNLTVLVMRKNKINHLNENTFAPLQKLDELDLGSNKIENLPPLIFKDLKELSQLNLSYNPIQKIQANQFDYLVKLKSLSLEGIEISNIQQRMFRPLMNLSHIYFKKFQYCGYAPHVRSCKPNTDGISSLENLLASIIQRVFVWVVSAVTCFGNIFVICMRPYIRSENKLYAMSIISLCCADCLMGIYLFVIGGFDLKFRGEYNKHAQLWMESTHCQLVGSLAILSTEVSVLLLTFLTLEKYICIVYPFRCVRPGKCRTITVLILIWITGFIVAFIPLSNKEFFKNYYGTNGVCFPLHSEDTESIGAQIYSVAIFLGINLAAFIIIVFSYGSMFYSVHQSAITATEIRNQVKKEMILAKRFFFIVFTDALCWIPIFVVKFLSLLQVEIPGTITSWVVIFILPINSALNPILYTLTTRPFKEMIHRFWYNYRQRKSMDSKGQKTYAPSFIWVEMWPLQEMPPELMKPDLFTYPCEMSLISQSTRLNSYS


Columns and labels:
RXFP1 receptor [1] = target: T1, RXFP1 receptor; experiment: cell-based or functional assay
RXFP1 receptor [2] = target: T1, RXFP1 receptor; experiment: cell-based or functional assay; remark: listed apart in the source

| Binder | EC50 (nM), OVCAR 5 cells (cAMP) (RXFP1 receptor [1]) | EMax, OVCAR 5 cells (cAMP) (RXFP1 receptor [1]) | EC50 (nM), cAMP assay in OVCAR 5 cells (RXFP1 receptor [2]) | Emax, cAMP assay in OVCAR 5 cells (RXFP1 receptor [2]) |
| --- | --- | --- | --- | --- |
| Ac-LEGREKVRAK(Ac)I[Aib][Aib]EG[Nle]STWS[Aib]RKK(Ac)[PEG28′]K([γGlu-γGlu-γGlu-Stearoyl])-NH2 [peptide of SEQ ID NO: 49] | 1.65 nM | 106% |  |  |
| Ac-VIKLSGRELVRAQIAISGMSTWSKRSL-NH2 [AcB7-33 C11.23S] |  |  | 929 nM | 70% |
| H-VIKLSGRELVRAQIAISGMSTWSKRSL-NH2 [B7-33 C11.23S] |  |  | 1640 nM | 90% |
| Ac-VIKLSGRELVRAQIAISGMSTWSKKKK-NH2 [KKKK(AcB7-29 C11.23S)] |  |  | 206 nM | 84% |
